Reference: US20240116985A1 (published 2024)
Starred links: 1 amine or outer side, 2 acyl side, 3 side chain; linkers in the order of their positions; H or OH if unused. Positions of bridges follow the written chain, without caps; N, C: chain ends. Non-standard residues stand in square brackets, D forms with d. Primed or numbered codes have the meaning given here. (CH2CMe2CO2H)TriAzDap = (S)-3-(1-(2-amino-2-carboxyethyl)-1H-1,2,3-triazol-4-yl)-2,2-dimethylpropanoic acid, CC(C)(Cc1cn(C[C@H](N[*:1])C(=O)[*:2])nn1)C(=O)[*:3]; (CH2CMe2CO2H)TriAzDab = (S)-2-amino-4-(4-(2-carboxy-2-methylpropyl)-1H-1,2,3-triazol-1-yl)butanoic acid, CC(C)(Cc1cn(CC[C@H](N[*:1])C(=O)[*:2])nn1)C(=O)[*:3]; (CMe2CO2H)TriAzDab = (S)-2-amino-4-(4-(2-carboxypropan-2-yl)-1H-1,2,3-triazol-1-yl)butanoic acid, CC(C)(C(=O)[*:3])c1cn(CC[C@H](N[*:1])C(=O)[*:2])nn1; PyrS2″ = (S)-3-amino-1-((pent-4-en-1-yloxy)carbonyl)pyrrolidine-3-carboxylic acid (stapling residue), C=CCCCOC(=O)N1CC[C@@](N[*:1])(C(=O)[*:2])C1; (CH2CH2CO2H)TriAzDab = (S)-2-amino-4-(4-(2-carboxyethyl)-1H-1,2,3-triazol-1-yl)butanoic acid, O=C([C@H](CCn1cc(CCC(=O)[*:3])nn1)N[*:1])[*:2]; (CH2CH2CO2H)TriAzDap = (S)-2-amino-3-(4-(2-carboxyethyl)-1H-1,2,3-triazol-1-yl)propanoic acid, O=C([C@H](Cn1cc(CCC(=O)[*:3])nn1)N[*:1])[*:2]; B5(16) = 2-amino-2-(pent-4-en-1-yl)hept-6-enoic acid = 2,2-bis(4-pentenyl)glycine (stitching residue), C=CCCCC(CCCC=C)(N[*:1])C(=O)[*:2]; (CH2CO2H)TriAzDab = (S)-2-amino-4-(4-(carboxymethyl)-1H-1,2,3-triazol-1-yl)butanoic acid, O=C([C@H](CCn1cc(CC(=O)[*:3])nn1)N[*:1])[*:2]; (CH2CO2H)TriAzDap = (S)-2-amino-3-(4-(carboxymethyl)-1H-1,2,3-triazol-1-yl)propanoic acid, O=C([C@H](Cn1cc(CC(=O)[*:3])nn1)N[*:1])[*:2]; B5(4) = 2,2-bis(4-pentenyl)glycine = 2-amino-2-(pent-4-en-1-yl)hept-6-enoic acid (stitching residue), C=CCCCC(CCCC=C)(N[*:1])C(=O)[*:2]; B5(9) = 2-amino-2-(pent-4-en-1-yl)hept-6-enoic acid (2,2-bis(4-pentenyl)glycine), C=CCCCC(CCCC=C)(N[*:1])C(=O)[*:2]; (2COOHPh)TriAzDab = O=C([C@H](CCn1cc(-c2ccccc2C(=O)[*:3])nn1)N[*:1])[*:2]; d(βAsp) = O=C(O)[C@@H](CC(=O)[*:2])N[*:1]; Ala(2-furyl) = N[C@@H](Cc1ccco1)C(=O)O; βAsp = O=C(O)[C@H](CC(=O)[*:2])N[*:1]; Bta = N[C@@H](Cc1csc2ccccc12)C(=O)O; αAllylPro = C=CC[C@@]1(C(=O)O)CCCN1; tBuAla = CC(C)(C)C[C@H](N)C(=O)O; 3Thi = N[C@@H](Cc1ccsc1)C(=O)O; S8 = C=CCCCCCC[C@](C)(N)C(=O)O; PyrS2(4) = not defined here

T1: Bcat-Halo (UniProt P35222 1-781)
T1 sequence (looked up): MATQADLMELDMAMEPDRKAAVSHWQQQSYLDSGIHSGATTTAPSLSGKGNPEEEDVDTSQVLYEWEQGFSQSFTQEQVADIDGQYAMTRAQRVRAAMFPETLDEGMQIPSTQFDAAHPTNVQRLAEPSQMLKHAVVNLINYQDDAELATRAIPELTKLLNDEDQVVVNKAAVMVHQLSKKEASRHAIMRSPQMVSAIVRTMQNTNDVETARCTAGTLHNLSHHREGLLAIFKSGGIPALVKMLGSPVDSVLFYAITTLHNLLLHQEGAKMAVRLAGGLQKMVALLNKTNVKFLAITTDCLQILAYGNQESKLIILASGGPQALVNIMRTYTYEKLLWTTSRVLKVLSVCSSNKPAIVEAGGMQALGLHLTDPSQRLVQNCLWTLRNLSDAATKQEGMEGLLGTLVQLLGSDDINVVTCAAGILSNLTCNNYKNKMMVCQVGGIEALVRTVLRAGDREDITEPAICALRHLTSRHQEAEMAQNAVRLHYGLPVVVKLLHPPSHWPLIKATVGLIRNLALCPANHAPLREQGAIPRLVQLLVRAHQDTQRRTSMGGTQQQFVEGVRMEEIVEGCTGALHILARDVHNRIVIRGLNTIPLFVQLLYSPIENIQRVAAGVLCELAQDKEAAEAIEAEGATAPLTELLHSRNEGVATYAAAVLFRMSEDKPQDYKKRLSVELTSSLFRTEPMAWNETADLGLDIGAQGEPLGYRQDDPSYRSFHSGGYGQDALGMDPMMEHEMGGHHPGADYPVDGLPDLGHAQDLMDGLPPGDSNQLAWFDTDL

T2: full-length beta-Catenin (Uniprot ID P35222) (Homo sapiens (Human), UniProt P35222 1-781)
T2 construct: the AlphaScreen used a Histidine (Nickel Chelate) detection kit, so a His tag is likely but not described; also called B-Catenin; bCat
T2 sequence: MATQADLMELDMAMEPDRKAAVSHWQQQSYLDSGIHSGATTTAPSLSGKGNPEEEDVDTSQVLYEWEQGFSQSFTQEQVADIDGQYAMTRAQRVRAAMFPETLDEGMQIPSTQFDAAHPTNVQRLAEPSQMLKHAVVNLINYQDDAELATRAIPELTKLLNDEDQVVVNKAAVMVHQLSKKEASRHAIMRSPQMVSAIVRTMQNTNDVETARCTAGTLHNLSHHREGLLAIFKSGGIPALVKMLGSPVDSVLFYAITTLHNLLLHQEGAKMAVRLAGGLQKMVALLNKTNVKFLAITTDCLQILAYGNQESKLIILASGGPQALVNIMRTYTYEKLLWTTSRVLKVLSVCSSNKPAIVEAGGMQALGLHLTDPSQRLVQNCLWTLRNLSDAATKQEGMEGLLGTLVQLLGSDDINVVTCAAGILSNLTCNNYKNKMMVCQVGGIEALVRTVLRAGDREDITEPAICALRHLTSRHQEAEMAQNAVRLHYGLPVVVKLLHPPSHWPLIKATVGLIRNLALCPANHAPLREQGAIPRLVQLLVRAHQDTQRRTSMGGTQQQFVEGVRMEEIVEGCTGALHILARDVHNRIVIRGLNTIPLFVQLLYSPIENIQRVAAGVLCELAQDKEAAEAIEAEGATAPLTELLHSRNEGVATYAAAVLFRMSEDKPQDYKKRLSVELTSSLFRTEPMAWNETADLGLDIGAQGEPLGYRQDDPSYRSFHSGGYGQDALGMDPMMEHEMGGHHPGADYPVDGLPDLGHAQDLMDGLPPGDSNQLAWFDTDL

T3: full-length beta-Catenin (Uniprot ID P35222) (Homo sapiens (Human), UniProt P35222 2-781)
T3 construct: 'mature' is the nearest allowed form; also called bCat; B-Catenin
T3 sequence: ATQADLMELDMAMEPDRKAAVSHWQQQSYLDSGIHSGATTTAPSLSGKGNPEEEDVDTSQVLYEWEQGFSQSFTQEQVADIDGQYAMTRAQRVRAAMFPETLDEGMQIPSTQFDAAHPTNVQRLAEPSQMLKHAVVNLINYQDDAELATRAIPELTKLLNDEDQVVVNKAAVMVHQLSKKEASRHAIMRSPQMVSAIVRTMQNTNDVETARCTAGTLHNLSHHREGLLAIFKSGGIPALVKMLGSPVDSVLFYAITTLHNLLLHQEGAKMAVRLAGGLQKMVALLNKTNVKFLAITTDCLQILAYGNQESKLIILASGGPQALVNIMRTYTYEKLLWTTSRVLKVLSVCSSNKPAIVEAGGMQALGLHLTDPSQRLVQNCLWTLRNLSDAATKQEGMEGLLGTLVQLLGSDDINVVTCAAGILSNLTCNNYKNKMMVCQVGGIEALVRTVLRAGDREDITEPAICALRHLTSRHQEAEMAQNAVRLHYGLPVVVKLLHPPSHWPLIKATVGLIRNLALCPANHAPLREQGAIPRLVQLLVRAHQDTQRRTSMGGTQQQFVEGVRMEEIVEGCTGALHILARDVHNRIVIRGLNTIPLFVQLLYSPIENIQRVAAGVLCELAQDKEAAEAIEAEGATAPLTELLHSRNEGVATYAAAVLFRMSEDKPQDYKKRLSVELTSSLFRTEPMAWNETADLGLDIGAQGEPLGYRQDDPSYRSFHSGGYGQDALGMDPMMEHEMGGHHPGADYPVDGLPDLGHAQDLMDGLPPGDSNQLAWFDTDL


Each binder was assayed against T1, Bcat-Halo (assay: cell-based or functional assay).

Row | Binder | NanoBRET Abs IC50 [µM]
1 | Ac-[αAllylPro]D[tBuAla][B5(4)]D[(CH2CO2H)TriAzDap]AAFL[PyrS2″][3Thi][Bta]Q-NH2 (staple 1-4, 4-11) [I-2084] | 9.2
2 | Ac-[αAllylPro]D[tBuAla][B5(4)]D[(CH2CH2CO2H)TriAzDap]AAFL[PyrS2″][3Thi][Bta]Q-NH2 (staple 1-4, 4-11) [I-2082] | 7.7
3 | Ac-[αAllylPro]D[tBuAla][B5(4)]D[(CH2CMe2CO2H)TriAzDap]AAFL[PyrS2″][3Thi][Bta]Q-NH2 (staple 1-4, 4-11) [I-2083] | 3.7
4 | Ac-[αAllylPro]D[tBuAla][B5(4)]D[(CH2CO2H)TriAzDab]AAFL[PyrS2″][3Thi][Bta]Q-NH2 (staple 1-4, 4-11) [I-2078] | 11.7
5 | Ac-[αAllylPro]D[tBuAla][B5(4)]D[(CH2CMe2CO2H)TriAzDab]AAFL[PyrS2″][3Thi][Bta]Q-NH2 (staple 1-4, 4-11) [I-2077] | 12.3

Second part, the binder after the results:

Row | NanoBRET Abs IC50 [µM] | Binder
6 | 28.8 | Ac-[αAllylPro]D[tBuAla][B5(4)]D[(2COOHPh)TriAzDab]AAFL[PyrS2″][3Thi][Bta]Q-NH2 (staple 1-4, 4-11; not fully specified) [I-2080]
7 | 11.6 | Ac-[αAllylPro]D[tBuAla][B5(4)]D[(2COOHPh)TriAzDab]AAFL[PyrS2(4)][3Thi][Bta]Q-NH2 (staple 1-4, 4-11; not fully specified; reading uncertain) [I-2081]
8 | 14.1 | Ac-[αAllylPro]D[tBuAla][B5(4)]D[(CH2CH2CO2H)TriAzDab]AAFL[PyrS2″][3Thi][Bta]Q-NH2 (staple 1-4, 4-11) [I-2076]
9 | 15.1 | Ac-[αAllylPro]D[tBuAla][B5(4)]D[(CMe2CO2H)TriAzDab]AAFL[PyrS2″][3Thi][Bta]Q-NH2 (staple 1-4, 4-11) [I-2079]

What follows are binders tested against T2, full-length beta-Catenin (Uniprot ID …) (assay: FP competition vs 5FAM-TCF4(10-53) probe on full-length beta-catenin).
Description: (§1) The plate was incubated protected from light for 60 minutes at 20° C. prior to read. Reads were performed on a CLARIOstar plate reader (BMG Labtech) in duplicate, and data were fitted to a 1:1 binding model with hill slope using an in-house script. All provided concentrations are final concentrations.

Row | EC50 [µM] | Binder
10 | 1.91 | Ac-[αAllylPro]DA[B5(4)]DDAA[Ala(2-furyl)]V[S8]FWQ-NH2 (staple 1-4, 4-11; not fully specified; printed as Ac-PL3-Asp-Ala-B5-Asp-Asp-Ala-Ala-2FurA-Val-S8-Phe-Trp-Gln-NH2, Ac-PL3-Asp-Ala-B5-Asp-Asp-Ala-Ala-2FurA-Val-S8-Phe-Trp-Gln-NH2; stapled peptide composition) [I-328]
11 | 4.72 | Ac-[αAllylPro]DA[B5(4)]DDAA[Ala(2-furyl)]V[S8]FWQ-NH2 (staple 1-4, 4-11; not fully specified; printed as Ac-PL3-Asp-Ala-B5-Asp-Asp-Ala-Ala-2FurA-Val-S8-Phe-Trp-Gln-NH2, Ac-PL3-Asp-Ala-B5-Asp-Asp-Ala-Ala-2FurA-Val-S8-Phe-Trp-Gln-NH2; stapled peptide composition) [I-327]

The binders below were run against T3, full-length beta-Catenin (Uniprot ID …) (assay: fluorescence polarization competition, full-length beta-catenin with 5FAM-TCF4(10-53) probe as competitor).
Description: as §1

Row | Binder | EC50 [µM]
12 | Ac-[αAllylPro]DI[B5(9)][βAsp]EAAFQ[S8]F[Bta]Q-NH2 (staple 1-4, 4-11, Stapled peptide composition) [I-673] | 5
13 | Ac-[αAllylPro][d(βAsp)]I[B5(9)]DEAAFQ[S8]F[Bta]Q-NH2 (staple 1-4, 4-11, Stapled peptide composition; earlier-eluting HPLC peak (staple isomer)) [I-668] | 0.675
14 | Ac-[αAllylPro]DI[B5(16)]DEFAFQ[S8]F[Bta]Q-NH2 (staple 1-4, 4-11, Stapled peptide composition; later-eluting HPLC peak (staple isomer)) [I-650] | 0.137

Second part, the binder after the results:

Row | EC50 [µM] | Binder
15 | 0.026 | XDIXDEASFQXFXQ (not fully specified; As printed: Ac-PL3-Asp-Ile-B5-Asp-Glu-Ala-Ser-Phe-Gln-S8-Phe-BztA-Gln-NH2; N-terminal Ac; PL3 at 1, B5 at 4, S8 at 11 (stapled 1-4 and 4-11); BztA at 13; C-terminal NH2, Stapled peptide composition; later-eluting HPLC peak (staple isomer)) [I-662]
16 | 0.072 | Ac-[αAllylPro]DI[B5(16)]DESAFQ[S8]F[Bta]Q-NH2 (staple 1-4, 4-11, Stapled peptide composition; later-eluting HPLC peak (staple isomer)) [I-652]
